Experimental data as given in the supplement of paper PMC10065799, “High-throughput profiling of sequence recognition by tyrosine kinases and SH2 domains using bacterial peptide display” (eLife, 2023).

Target: FGFR3 (UniProt P22607)
Assay: phosphorylation enrichment, bacterial display (enrichment ratio); higher = better substrate or ligand; peptides without Tyr show the background
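Note: 11-residue human phosphosite peptides and single-mutation variants displayed on the E. coli surface, counted by deep sequencing, each peptide's frequency after selection divided by its frequency in the unselected input library; frequency after pTyr selection over input frequency; kinase dosed for 20-30% of maximal phosphorylation in three min.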

FGFR3, sequence (P22607 whole entry, looked up): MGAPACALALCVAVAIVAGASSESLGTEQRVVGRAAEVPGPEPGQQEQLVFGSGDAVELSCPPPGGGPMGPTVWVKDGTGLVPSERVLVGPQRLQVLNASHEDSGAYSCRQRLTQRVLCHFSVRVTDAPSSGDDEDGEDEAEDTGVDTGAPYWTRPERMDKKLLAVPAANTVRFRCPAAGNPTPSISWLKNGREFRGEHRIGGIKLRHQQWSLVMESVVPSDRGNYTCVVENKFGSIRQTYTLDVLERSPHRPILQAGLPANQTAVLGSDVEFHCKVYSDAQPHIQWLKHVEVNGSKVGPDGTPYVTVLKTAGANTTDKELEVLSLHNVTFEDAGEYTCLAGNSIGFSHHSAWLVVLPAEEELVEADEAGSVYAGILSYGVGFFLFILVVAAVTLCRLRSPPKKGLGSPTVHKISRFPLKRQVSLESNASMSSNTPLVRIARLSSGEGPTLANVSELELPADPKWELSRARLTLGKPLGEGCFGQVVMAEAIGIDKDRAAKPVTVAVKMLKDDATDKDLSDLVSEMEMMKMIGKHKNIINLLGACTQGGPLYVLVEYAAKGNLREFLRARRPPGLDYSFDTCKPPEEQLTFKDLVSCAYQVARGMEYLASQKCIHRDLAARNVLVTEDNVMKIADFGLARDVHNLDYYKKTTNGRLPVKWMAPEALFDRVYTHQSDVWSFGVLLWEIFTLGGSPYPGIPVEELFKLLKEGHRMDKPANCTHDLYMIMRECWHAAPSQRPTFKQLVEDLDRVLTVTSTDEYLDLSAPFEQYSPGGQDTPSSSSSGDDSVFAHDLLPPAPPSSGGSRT

Row | Sequence | phosphorylation enrichment
1 | QEALEYFMKQT [PIK3CA_Y1038_M1043T] | 2.76
2 | LTTEAYEWEPC [ELMOD3_Y61_R66C] | 3.7
3 | SMAKFYASEIA [ACADSB_Y373_YF] | 0.604
4 | EFITRYIDSLK [PSMA7_Y110_A112D_YF] | 0.639
5 | YQASYYRRGDR [LTK_Y677_R673Q] | 0.526
6 | ANFTEYVATSW [CDKL5_Y171_R175S_YF] | 0.983
7 | GTATTYLCGVK [ALPL_Y117_A116T] | 0.758
8 | DKITQYVEEVR [STX2_Y49_K54R] | 0.609
9 | FSCLPCGRLAF [SLC52A2_Y305_Y305C_YF] | 0.542
10 | YTFNSYYMHWV [IGHV1-46_Y51_T49N] | 5.38
11 | RKLASYQSCLL [DHX37_Y1080_R1081Q] | 1.22
12 | MTRDIYRASFF [ALK_Y1278_A1274T_YF] | 0.677
13 | VDTPMYATMQR [TPO_Y55_A53P] | 0.684
14 | GGYTWYCDGKK [PROS1_Y266_C265W] | 0.795
15 | QAFSWYQHQRA [NDST1_Y714_R709Q_YF] | 1.02
16 | IDSTPYRQWYE [RPS8_Y109] | 0.753
17 | FYDANYDGKEY [MAPRE2_Y162] | 0.796
18 | IHHIDYFKKTT [FGFR1_Y653_YF] | 0.642
19 | IYKAAYFGVYD [SLC25A4_Y191_R188K] | 0.745
20 | IVRSLYKDLED [VHL_Y185_E186K] | 0.688
21 | FIGRIYLYLTK [GARS1_Y414] | 0.627
22 | SFTDPYAQPPL [KMT2D_Y2378_YF] | 0.607
23 | ARDVIYIIIPA [FRKtide_2014] | 2
24 | RSDEDYLCREE [POR_Y573_Y575C] | 1.27
25 | EHVMPYAANKN [GRIN2A_Y1431] | 0.344
26 | DMLFQYLKQIE [RPAP3_Y569_YF] | 0.59
27 | SKNSKYNAGST [PSEN1_Y315_E318G] | 0.439
28 | MFNPCYGLFEF [NEDD4L_Y680_Y679C_YF] | 0.766
29 | RGFRVYFTPDS [PTPRF_Y450_YF] | 0.877

System: Fer (mouse)
Assay: as above

Row | Sequence | phosphorylation enrichment
30 | QEALEYFMKQT [PIK3CA_Y1038_M1043T] | 1.82
31 | LTTEAYEWEPC [ELMOD3_Y61_R66C] | 2.88
32 | SMAKFYASEIA [ACADSB_Y373_YF] | 0.61
33 | EFITRYIDSLK [PSMA7_Y110_A112D_YF] | 0.426
34 | YQASYYRRGDR [LTK_Y677_R673Q] | 0.403
35 | ANFTEYVATSW [CDKL5_Y171_R175S_YF] | 0.505
36 | GTATTYLCGVK [ALPL_Y117_A116T] | 0.495
37 | DKITQYVEEVR [STX2_Y49_K54R] | 0.486
38 | FSCLPCGRLAF [SLC52A2_Y305_Y305C_YF] | 0.423
39 | YTFNSYYMHWV [IGHV1-46_Y51_T49N] | 5.35
40 | RKLASYQSCLL [DHX37_Y1080_R1081Q] | 0.555
41 | MTRDIYRASFF [ALK_Y1278_A1274T_YF] | 0.386
42 | VDTPMYATMQR [TPO_Y55_A53P] | 0.706
43 | GGYTWYCDGKK [PROS1_Y266_C265W] | 0.524
44 | QAFSWYQHQRA [NDST1_Y714_R709Q_YF] | 0.863
45 | IDSTPYRQWYE [RPS8_Y109] | 0.51
46 | FYDANYDGKEY [MAPRE2_Y162] | 0.627
47 | IHHIDYFKKTT [FGFR1_Y653_YF] | 0.398
48 | IYKAAYFGVYD [SLC25A4_Y191_R188K] | 0.893
49 | IVRSLYKDLED [VHL_Y185_E186K] | 0.688
50 | FIGRIYLYLTK [GARS1_Y414] | 0.535
51 | SFTDPYAQPPL [KMT2D_Y2378_YF] | 0.411
52 | ARDVIYIIIPA [FRKtide_2014] | 0.559
53 | RSDEDYLCREE [POR_Y573_Y575C] | 0.951
54 | EHVMPYAANKN [GRIN2A_Y1431] | 0.253
55 | DMLFQYLKQIE [RPAP3_Y569_YF] | 0.462
56 | SKNSKYNAGST [PSEN1_Y315_E318G] | 0.436
57 | MFNPCYGLFEF [NEDD4L_Y680_Y679C_YF] | 4.76
58 | RGFRVYFTPDS [PTPRF_Y450_YF] | 0.469

Target: Fes (UniProt P07332)
Assay: as above

Fes, sequence (P07332 whole entry, looked up): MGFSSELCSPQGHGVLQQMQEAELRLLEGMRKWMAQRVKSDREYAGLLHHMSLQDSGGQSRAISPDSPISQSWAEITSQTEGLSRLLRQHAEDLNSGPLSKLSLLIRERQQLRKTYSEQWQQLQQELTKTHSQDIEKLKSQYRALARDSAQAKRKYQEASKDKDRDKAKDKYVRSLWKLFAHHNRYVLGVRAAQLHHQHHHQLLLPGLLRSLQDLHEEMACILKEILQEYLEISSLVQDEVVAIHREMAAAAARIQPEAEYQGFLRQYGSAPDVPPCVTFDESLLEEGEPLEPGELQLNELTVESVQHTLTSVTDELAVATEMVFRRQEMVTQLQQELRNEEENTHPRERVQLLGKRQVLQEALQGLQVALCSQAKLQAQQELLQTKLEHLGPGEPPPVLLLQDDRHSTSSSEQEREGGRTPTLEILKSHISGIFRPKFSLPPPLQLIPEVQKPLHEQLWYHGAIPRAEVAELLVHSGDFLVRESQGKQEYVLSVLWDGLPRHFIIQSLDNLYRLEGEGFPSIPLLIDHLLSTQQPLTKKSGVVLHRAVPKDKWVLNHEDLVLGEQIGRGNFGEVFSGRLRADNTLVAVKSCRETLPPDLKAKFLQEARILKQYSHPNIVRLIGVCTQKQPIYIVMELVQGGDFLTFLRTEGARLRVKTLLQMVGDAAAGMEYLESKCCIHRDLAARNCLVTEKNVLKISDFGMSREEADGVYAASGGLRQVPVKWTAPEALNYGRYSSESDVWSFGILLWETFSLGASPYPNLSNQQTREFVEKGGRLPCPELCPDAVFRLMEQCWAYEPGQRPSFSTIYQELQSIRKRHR

Row | Sequence | phosphorylation enrichment
59 | QEALEYFMKQT [PIK3CA_Y1038_M1043T] | 3.76
60 | LTTEAYEWEPC [ELMOD3_Y61_R66C] | 6.22
61 | SMAKFYASEIA [ACADSB_Y373_YF] | 0.803
62 | EFITRYIDSLK [PSMA7_Y110_A112D_YF] | 0.878
63 | YQASYYRRGDR [LTK_Y677_R673Q] | 0.713
64 | ANFTEYVATSW [CDKL5_Y171_R175S_YF] | 1.03
65 | GTATTYLCGVK [ALPL_Y117_A116T] | 1.13
66 | DKITQYVEEVR [STX2_Y49_K54R] | 1.08
67 | FSCLPCGRLAF [SLC52A2_Y305_Y305C_YF] | 0.868
68 | YTFNSYYMHWV [IGHV1-46_Y51_T49N] | 1.6
69 | RKLASYQSCLL [DHX37_Y1080_R1081Q] | 1.11
70 | MTRDIYRASFF [ALK_Y1278_A1274T_YF] | 0.73
71 | VDTPMYATMQR [TPO_Y55_A53P] | 0.942
72 | GGYTWYCDGKK [PROS1_Y266_C265W] | 1.24
73 | QAFSWYQHQRA [NDST1_Y714_R709Q_YF] | 1.64
74 | IDSTPYRQWYE [RPS8_Y109] | 1.05
75 | FYDANYDGKEY [MAPRE2_Y162] | 1.37
76 | IHHIDYFKKTT [FGFR1_Y653_YF] | 0.822
77 | IYKAAYFGVYD [SLC25A4_Y191_R188K] | 1.05
78 | IVRSLYKDLED [VHL_Y185_E186K] | 1.19
79 | FIGRIYLYLTK [GARS1_Y414] | 1.12
80 | SFTDPYAQPPL [KMT2D_Y2378_YF] | 0.832
81 | ARDVIYIIIPA [FRKtide_2014] | 1.36
82 | RSDEDYLCREE [POR_Y573_Y575C] | 2.34
83 | EHVMPYAANKN [GRIN2A_Y1431] | 0.463
84 | DMLFQYLKQIE [RPAP3_Y569_YF] | 1.22
85 | SKNSKYNAGST [PSEN1_Y315_E318G] | 0.776
86 | MFNPCYGLFEF [NEDD4L_Y680_Y679C_YF] | 1.27
87 | RGFRVYFTPDS [PTPRF_Y450_YF] | 1.71

Target: Fyn (UniProt P06241)
Assay: as above

Fyn, sequence (P06241 whole entry, looked up): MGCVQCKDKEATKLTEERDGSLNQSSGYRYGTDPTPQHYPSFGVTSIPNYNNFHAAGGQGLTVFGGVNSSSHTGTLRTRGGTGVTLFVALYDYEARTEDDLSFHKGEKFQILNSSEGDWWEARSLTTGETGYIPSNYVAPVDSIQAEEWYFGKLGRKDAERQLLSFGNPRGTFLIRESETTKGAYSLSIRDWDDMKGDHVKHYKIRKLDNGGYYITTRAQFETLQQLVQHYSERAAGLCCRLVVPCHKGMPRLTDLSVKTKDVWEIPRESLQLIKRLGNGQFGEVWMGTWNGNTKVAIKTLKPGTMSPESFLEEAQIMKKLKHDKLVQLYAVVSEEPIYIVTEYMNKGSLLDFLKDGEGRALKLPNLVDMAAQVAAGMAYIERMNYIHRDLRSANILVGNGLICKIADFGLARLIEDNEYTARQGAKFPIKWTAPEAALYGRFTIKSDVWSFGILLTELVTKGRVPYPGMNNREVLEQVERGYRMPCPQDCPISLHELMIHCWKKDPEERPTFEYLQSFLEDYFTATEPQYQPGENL

Row | Sequence | phosphorylation enrichment
88 | QEALEYFMKQT [PIK3CA_Y1038_M1043T] | 1.93
89 | LTTEAYEWEPC [ELMOD3_Y61_R66C] | 1.58
90 | SMAKFYASEIA [ACADSB_Y373_YF] | 0.434
91 | EFITRYIDSLK [PSMA7_Y110_A112D_YF] | 0.526
92 | YQASYYRRGDR [LTK_Y677_R673Q] | 0.492
93 | ANFTEYVATSW [CDKL5_Y171_R175S_YF] | 0.555
94 | GTATTYLCGVK [ALPL_Y117_A116T] | 0.479
95 | DKITQYVEEVR [STX2_Y49_K54R] | 0.427
96 | FSCLPCGRLAF [SLC52A2_Y305_Y305C_YF] | 0.354
97 | YTFNSYYMHWV [IGHV1-46_Y51_T49N] | 1.54
98 | RKLASYQSCLL [DHX37_Y1080_R1081Q] | 0.901
99 | MTRDIYRASFF [ALK_Y1278_A1274T_YF] | 0.587
100 | VDTPMYATMQR [TPO_Y55_A53P] | 3.58
101 | GGYTWYCDGKK [PROS1_Y266_C265W] | 0.362
102 | QAFSWYQHQRA [NDST1_Y714_R709Q_YF] | 0.658
103 | IDSTPYRQWYE [RPS8_Y109] | 0.492
104 | FYDANYDGKEY [MAPRE2_Y162] | 0.642
105 | IHHIDYFKKTT [FGFR1_Y653_YF] | 0.561
106 | IYKAAYFGVYD [SLC25A4_Y191_R188K] | 6.16
107 | IVRSLYKDLED [VHL_Y185_E186K] | 0.535
108 | FIGRIYLYLTK [GARS1_Y414] | 0.445
109 | SFTDPYAQPPL [KMT2D_Y2378_YF] | 0.531
110 | ARDVIYIIIPA [FRKtide_2014] | 0.873
111 | RSDEDYLCREE [POR_Y573_Y575C] | 0.716
112 | EHVMPYAANKN [GRIN2A_Y1431] | 0.313
113 | DMLFQYLKQIE [RPAP3_Y569_YF] | 0.421
114 | SKNSKYNAGST [PSEN1_Y315_E318G] | 0.59
115 | MFNPCYGLFEF [NEDD4L_Y680_Y679C_YF] | 4.92
116 | RGFRVYFTPDS [PTPRF_Y450_YF] | 0.4
